Article PMC4303003, “Repressive mutations restore function-loss caused by the disruption of trimerization in Escherichia coli multidrug transporter AcrB” (Frontiers in Microbiology, 2015)

Molecular target: the molecule itself
Test: native gel or EMSA; BN-PAGE of purified AcrB proteins; loading buffer with 1% dodecylmaltoside, 0.1% Coomassie G-250, pH 7.0; 4-15% gradient gel, 15 mA, 4°C, 2 h; trimer and monomer bands quantified with ImageJ; trimer to monomers

B1: wild type AcrB (Escherichia coli multidrug transporter AcrB) (natural protein)
chain: MPNFFIDRPIFAWVIAIIIMLAGGLAILKLPVAQYPTIAPPAVTISASYPGADAKTVQDTVTQVIEQNMNGIDNLMYMSSNSDSTGTVQITLTFESGTDADIAQVQVQNKLQLAMPLLPQEVQQQGVSVEKSSSSFLMVVGVINTDGTMTQEDISDYVAANMKDAISRTSGVGDVQLFGSQYAMRIWMNPNELNKFQLTPVDVITAIKAQNAQVAAGQLGGTPPVKGQQLNASIIAQTRLTSTEEFGKILLKVNQDGSRVLLRDVAKIELGGENYDIIAEFNGQPASGLGIKLATGANALDTAAAIRAELAKMEPFFPSGLKIVYPYDTTPFVKISIHEVVKTLVEAIILVFLVMYLFLQNFRATLIPTIAVPVVLLGTFAVLAAFGFSINTLTMFGMVLAIGLLVDDAIVVVENVERVMAEEGLPPKEATRKSMGQIQGALVGIAMVLSAVFVPMAFFGGSTGAIYRQFSITIVSAMALSVLVALILTPALCATMLKPIAKGDHGEGKKGFFGWFNRMFEKSTHHYTDSVGGILRSTGRYLVLYLIIVVGMAYLFVRLPSSFLPDEDQGVFMTMVQLPAGATQERTQKVLNEVTHYYLTKEKNNVESVFAVNGFGFAGRGQNTGIAFVSLKDWADRPGEENKVEAITMRATRAFSQIKDAMVFAFNLPAIVELGTATGFDFELIDQAGLGHEKLTQARNQLLAEAAKHPDMLTSVRPNGLEDTPQFKIDIDQEKAQALGVSINDINTTLGAAWGGSYVNDFIDRGRVKKVYVMSEAKYRMLPDDIGDWYVRAADGQMVPFSAFSSSRWEYGSPRLERYNGLPSMEILGQAAPGKSTGEAMELMEQLASKLPTGVGYDWTGMSYQERLSGNQAPSLYAISLIVVFLCLAALYESWSIPFSVMLVVPLGVIGALLAATFRGLTNDVYFQVGLLTTIGLSAKNAILIVEFAKDLMDKEGKGLIEATLDAVRMRLRPILMTSLAFILGVMPLVISTGAGSGAQNAVGTGVMGGMVTATVLAIFFVPVFFVVVRRRFSRKNEDIEHSHTVDHH
notes: AcrB, inner membrane RND multidrug transporter of Escherichia coli, encoded on plasmid pQE70-AcrB; also called WT AcrB; WT; source: E. coli BW25113ΔacrB transformed with pQE70-AcrB (in cells for cross-linking); purified as described (Lu et al., 2011) for BN-PAGE
binding result: binds
